From PMC4522956, “Unsaturated fatty acids as high-affinity ligands of the C-terminal Per-ARNT-Sim domain from the Hypoxia-inducible factor 3α” (Scientific Reports, 2015) come the findings set out here.

This experiment addresses T1, HIF-1β PASb labeled with FITC (human (cDNA library from the breast …, UniProt P27540 349-467, FITC (fluorescein isothiocyanate) label, sites not stated)).
T1 construct: HIF-1β (ARNT), PASb domain, Pro349-Ser467 of UniProt P27540; Same construct as m2, labeled with a 20-fold molar excess of FITC in borate buffer pH 8.5; also called PASb-1β labeled with FITC; PASb-1β; source: E. coli Rosetta-2, purified (TALON, MonoQ, Superdex 75), then labeled with FITC; not shown: 6xHis, N-terminal, cleaved
As to the kind of experiment: fluorescence polarisation; unlabeled PASb-1α or PASb-3α serially diluted 1:2 from about 1 mM, mixed with FITC-labeled PASb-1β at 20 nM final; 30 mM Hepes pH 7.5, 150 mM NaCl, 0.5 mM TCEP; room temperature; triplicate. Particulars: both partners purified.

T1 sequence (P27540 349-467): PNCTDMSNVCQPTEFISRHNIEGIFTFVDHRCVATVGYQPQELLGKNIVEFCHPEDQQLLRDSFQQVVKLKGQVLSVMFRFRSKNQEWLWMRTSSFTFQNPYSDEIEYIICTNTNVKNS

B1: HIF-1α PASb (domain or fragment)
chain: not shown
notes: Hypoxia-inducible factor 1α, PASb domain, Asp238-His348 of UniProt Q16665; Cloned NdeI/XhoI into pET28a; residues of the vector probably remain at the N-terminus after thrombin cleavage (surmise); also called PASb-1α; source: E. coli Rosetta-2, purified (TALON, MonoQ, Superdex 75); not shown: 6xHis, N-terminal, cleaved
In the case of B1, the binding result is reported as “binds”.
